Molecular target: T1, WWP2 WT (human, UniProt O00308 1-870)
T1 construct: called the ~100 kDa WWP2 protein; Unlabelled WWP2 titrated in the fluorescence anisotropy assays; also called WT WWP2; source: E. coli (BL-21 (DE3) Codon+ or BL21 Rosetta (DE3) pLysS), purified (glutathione agarose, GST removed, size exclusion)
Test: fluorescence polarisation; fluorescence anisotropy; 100 nM fluorescein-labeled WBP2, WWP2 titrated; 23 °C; quadratic binding fit
Conditions: both partners purified

T1 sequence (O00308 whole entry): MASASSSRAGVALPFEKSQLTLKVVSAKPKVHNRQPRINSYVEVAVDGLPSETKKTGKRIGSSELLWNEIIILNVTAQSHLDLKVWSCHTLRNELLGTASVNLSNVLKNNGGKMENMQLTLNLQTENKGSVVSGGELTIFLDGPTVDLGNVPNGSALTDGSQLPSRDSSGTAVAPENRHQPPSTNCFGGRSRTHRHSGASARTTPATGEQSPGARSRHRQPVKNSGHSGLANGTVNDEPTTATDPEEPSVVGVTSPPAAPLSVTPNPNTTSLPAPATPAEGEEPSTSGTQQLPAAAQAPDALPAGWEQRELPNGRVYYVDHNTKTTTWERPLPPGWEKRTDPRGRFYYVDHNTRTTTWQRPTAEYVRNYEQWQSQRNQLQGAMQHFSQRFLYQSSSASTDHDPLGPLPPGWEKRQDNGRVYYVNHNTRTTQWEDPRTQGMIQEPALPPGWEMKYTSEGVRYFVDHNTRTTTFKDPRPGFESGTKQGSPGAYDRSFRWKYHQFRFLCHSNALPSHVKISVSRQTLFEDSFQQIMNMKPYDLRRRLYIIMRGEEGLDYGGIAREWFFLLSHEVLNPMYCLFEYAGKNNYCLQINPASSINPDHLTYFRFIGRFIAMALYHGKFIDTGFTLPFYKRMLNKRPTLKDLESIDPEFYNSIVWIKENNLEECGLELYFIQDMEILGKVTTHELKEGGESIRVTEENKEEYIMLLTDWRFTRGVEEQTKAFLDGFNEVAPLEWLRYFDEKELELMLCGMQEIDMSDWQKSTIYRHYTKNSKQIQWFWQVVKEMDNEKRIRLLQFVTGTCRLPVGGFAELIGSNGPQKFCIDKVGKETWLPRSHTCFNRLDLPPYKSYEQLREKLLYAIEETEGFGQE

Kd: 3.7 µM
B1: Fluorescein N-terminal-labeled WBP2 (aa. 149-261) (domain or fragment, human, UniProt Q969T9 149-261, looked up)
chain: PSGAYVYPPPVANGMYPCPPGYPYPPPPPEFYPGPPMMDGAMGYVQPPPPPYPGPMEPPVSGPDVPSTPAAEAKAAEAAASAYYNPGNPHNVYMPTSQPPPPPYYPPEDKKTQ
modifications: fluorescein (5/6-carboxyfluorescein, FAM) on the N-terminus
notes: WBP2, human, aa; 149-261, from pET28b-WBP2; Labelled 'with a similar procedure as that used for WWP2' (N-terminal Cys after protease cleavage), so an N-terminal Cys and loss of the tag may apply; also called FAM labeled WBP2; fluorescein-labeled WBP2; source: E. coli Rosetta pLysS, purified (Ni-NTA, Superdex 75), fluorescein labelled
